Results reported in PMC11452297.

Biological target: C-terminal domain of FusB (residues 224-324) (Pectobacterium carotovorum)
Assay: ITC; 480 uM PM1 in the syringe titrated into 20 uM FusB in the cell; VP-ITC, 25 °C, 20 mM sodium phosphate pH 7.5, 150 mM NaCl

Pectocin M1 (natural protein)
Kd: 8.1 µM
dH: -25.1 kJ/mol
